The source of these data is article PMC7914964, “Ca^2+-Dependent Protein Kinase 6 Enhances KAT2 Shaker Channel Activity in Arabidopsis thaliana” (International Journal of Molecular Sciences, 2021).

For this assay, the target named is KAT2-CFP (Arabidopsis thaliana, UniProt Q38849 1-697). Kind of assay: cell-based or functional assay.
Chain of KAT2-CFP (Q38849 whole entry): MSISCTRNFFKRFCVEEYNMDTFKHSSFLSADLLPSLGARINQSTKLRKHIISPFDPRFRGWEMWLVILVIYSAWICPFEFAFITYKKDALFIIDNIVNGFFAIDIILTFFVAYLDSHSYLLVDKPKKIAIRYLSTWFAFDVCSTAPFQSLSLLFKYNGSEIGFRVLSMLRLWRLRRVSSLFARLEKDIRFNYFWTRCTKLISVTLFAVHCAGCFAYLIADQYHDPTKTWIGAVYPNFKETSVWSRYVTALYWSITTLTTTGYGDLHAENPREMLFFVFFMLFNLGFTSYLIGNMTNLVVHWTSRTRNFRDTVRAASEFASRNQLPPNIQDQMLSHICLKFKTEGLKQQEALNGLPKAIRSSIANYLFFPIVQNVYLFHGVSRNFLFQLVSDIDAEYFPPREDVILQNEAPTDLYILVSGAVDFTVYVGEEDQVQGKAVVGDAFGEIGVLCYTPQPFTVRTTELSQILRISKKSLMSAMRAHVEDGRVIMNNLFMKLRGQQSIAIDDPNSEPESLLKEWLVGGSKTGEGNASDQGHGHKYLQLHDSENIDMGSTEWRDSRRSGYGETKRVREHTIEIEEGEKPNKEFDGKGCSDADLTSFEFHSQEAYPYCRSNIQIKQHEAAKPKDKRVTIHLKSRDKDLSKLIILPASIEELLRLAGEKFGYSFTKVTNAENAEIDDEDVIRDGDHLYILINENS

B1: AtCPK6-YFP (enzyme, Arabidopsis thaliana, UniProt Q38872 1-544, looked up)
chain: MGNSCRGSFKDKIYEGNHSRPEENSKSTTTTVSSVHSPTTDQDFSKQNTNPALVIPVKEPIMRRNVDNQSYYVLGHKTPNIRDLYTLSRKLGQGQFGTTYLCTDIATGVDYACKSISKRKLISKEDVEDVRREIQIMHHLAGHKNIVTIKGAYEDPLYVHIVMELCAGGELFDRIIHRGHYSERKAAELTKIIVGVVEACHSLGVMHRDLKPENFLLVNKDDDFSLKAIDFGLSVFFKPGQIFKDVVGSPYYVAPEVLLKHYGPEADVWTAGVILYILLSGVPPFWAETQQGIFDAVLKGYIDFDTDPWPVISDSAKDLIRKMLCSSPSERLTAHEVLRHPWICENGVAPDRALDPAVLSRLKQFSAMNKLKKMALKVIAESLSEEEIAGLRAMFEAMDTDNSGAITFDELKAGLRRYGSTLKDTEIRDLMEAADVDNSGTIDYSEFIAATIHLNKLEREEHLVSAFQYFDKDGSGYITIDELQQSCIEHGMTDVFLEDIIKEVDQDNDGRIDYEEFVAMMQKGNAGVGRRTMKNSLNISMRDV
On to B1, for which the “KAT2 currents at hyperpolarized potentials (TEVC) in Xenopus laevis oocytes co-expressing KAT2 and AtCPK6, against KAT2 alone” value worked out at 2 fold.
